Experiment: yeast display, Sf9 membrane polyspecificity reagent, FACS + sequencing; frameworks hold sequencing errors
Summary of the method: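 Polyreactivity labels are assigned by the sorting gate from which each nanobody was recovered. The gates were low and high (top ~1%), set on anti-HA fluorescence for expression and streptavidin fluorescence for reagent binding. Before sorting, galactose-induced (36–48 hours) yeast display cells were stained for 1 hour at 4 °C with 10% biotinylated, detergent-solubilized Sf9 membrane reagent.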
For “QVQLVESGGGLVQPGGSLRLSCAASRSIFKVYAMGWYRQEPGKEREFVAAITSSDSNTNYADSVKGRFTISRDNAKNTVYLQMHSLKPEDTAVYYCNARIYNRRYVPHYGFNYWGQGTQVTVSS”, the “polyreactivity (PSR sort gate)” value was “low polyreactivity”. In the case of “QVQLVESGGGLVQPGGSLRLTCAASGGIFVTYTMGWYRQAPGKDRELVAGINSRSGSTYADSVKGGFTISRDNAKNTVYLQRTSLKLEDTAVYYCAADRIDLGRASRYGYWGQGTQVTVSS”, the “polyreactivity (PSR sort gate)” value is reported as “low polyreactivity”. In the case of “QVQLVESGGGLVQSGASLRLSCAASGLIIGLYALGWYRQAPGKERELVAAISDNGARTYYADSVKGRFTISRDNAKNTVYLQMNSLKPEDTAVYYCARDQSYHYNYWGQGTQVTVSS”, the “polyreactivity (PSR sort gate)” value is reported as “low polyreactivity”. With “QVQLVESGGGLVQSGGILRLSCAASGSTSPIYAMGWYRQAPGTERELVAAINGVGSTNYADSVKGRFTISRDNAKTTVYFQMNSLKPADTAVYYCAADGTALHEYLGDYDYWGQGTQVTVSS” the “polyreactivity (PSR sort gate)” value was “low polyreactivity”. For “QVQLVESGGGLVQSGGSIRLSCAASGSTFLWYCMGWYRQAPGKERELVASISRGGGTDYADSVKGRFTISRDNAKNTVYLQMNSLKPEDTAVYYCAATGVNRYDHWGQGTHVTVSS”, the “polyreactivity (PSR sort gate)” value was “low polyreactivity”. With “QVQLVESGGGLVQSGGSLRLICAASGRNYAMGWYRQAPGKERELVARITKSGTSTYYADSVKGRFTISRDNAKNTVYLQMNSLKPEDTAVYYCNARYWGYWGDHYDYWGQGTQVTVSS” the “polyreactivity (PSR sort gate)” value was “high polyreactivity”. In the case of “QVQLVESGGGLVQSGGSLRLSCAASGGIFRYYVMGWYRQAPGKERELVAPINSGGTTYYEDSVKGRFTISRDNAKNTVYLQMNSLKPEDTAVYFCAAYYAGFGYNYWGQGTQVTVSS”, the “polyreactivity (PSR sort gate)” value is reported as “low polyreactivity”. In the case of “QVQLVESGGGLVQSGGSLRLSCAASGIIFNDYAMGWYRQAPGKERELVAAISGRGGRTYYADSVKGRFTISRDNAKITVYLQMNSLKPEDTAVYYCAARVLPTDYYWGQGTQVTVSS”, the “polyreactivity (PSR sort gate)” value is reported as “high polyreactivity”. In the case of “QVQLVESGGGLVQSGGSLRLSCAASGIIFQYYAMGWYRQAPGKEMELVAAITSSGGSTFYADSVKGSFTISRDNAKNTVYLQMNSLKPEDTAVYYCAAVYHRSTYDYWGQGTQVNVSS”, the “polyreactivity (PSR sort gate)” value is reported as “high polyreactivity”. In the case of “QVQLVESGGGLVQSGGSLRLSCAASGLIFPYYAMGWYRQAPGKERELVAAITGNGGRTYYADSVKGRFTISRDNAKYNVYLQMNSLKPEDTAVYYCAAAGKASSDYYVLGGYWGQGTQVTVSS”, the “polyreactivity (PSR sort gate)” value is reported as “high polyreactivity”. In the case of “QVQLVESGGGLVQSGGSLRLSCAASGLTFLNNALGWYRQAPGKERELVAAISDGGSPNYADSVKGRFTISRDNAKNTVFLQMNSLKPEDTAVYYCAAVYTSASYGSWGQGTQVTVSS”, the “polyreactivity (PSR sort gate)” value is reported as “low polyreactivity”. With “QVQLVESGGGLVQSGGSLRLSCAASGRTFFENAMGWYRPAPGKEREFVAAISYNGGSTYYADSVKGRFTISRDNAKNTVYLQMNSLKPEDTAVYYCAADPNYGYDYWGQGTQVTVSS” the “polyreactivity (PSR sort gate)” value was “low polyreactivity”. With “QVQLVESGGGLVQSGGSLRLSCAASGSIFWYNARGWYRQAPGKERELVAAINGGGRTYYADSVKGPFTISRDNAKNTVYLQMNSLKPEDTAVYYCAVDPISQGHMDYGGQGTQVTVSS” the “polyreactivity (PSR sort gate)” value was “low polyreactivity”. With “QVQLVESGGGLVQSGGSLRLSCAASGYIFFFNAMGWYRQAPGKERELVAAITRRGVSTYYADSVKGRCTISRDNAKNTVFLQMNSLKPEDTAVYYCATEHNHLGYYYWGQGTQVTVSS” the “polyreactivity (PSR sort gate)” value was “low polyreactivity”. For “QVQLVESGGGLVQSGGSLRLSCAASGYTFLEYTMGWYRQAPGKERELVAAITSGGSTKYADSVKGRFTISRDNAKNTVYLQMNSLKPEDTAVYYCNARHYSREFDYWGQGTQVTVSS”, the “polyreactivity (PSR sort gate)” value was “low polyreactivity”. In the case of “QVQLVESGGGLVQSGGSLRLSCAAYGLILTHYSMGRYRQAPGKESELVAAIDYGGGSNTYYADSVKGLFTISRDNAKNTDYLQMNSLKPEDTAVYYCAAYRAGNSYDPRLNYWGQGTQVTVSS”, the “polyreactivity (PSR sort gate)” value is reported as “high polyreactivity”. With “QVQLVESGGGLVQSGGSLRLSCAGSGSTLYYYVMGWYRQAPGKERELVAAISSSGDSTYYADSVKGRFTISRDNAKNTVSLQMNSLKPEDTAVYYCNAGWYFYGESTDDYWGQGTQVTVSS” the “polyreactivity (PSR sort gate)” value was “low polyreactivity”. In the case of “QVQLVESGGGLVQSGGSLRLSWAASGSIFVTYAMRCYRPAPGKERELVAAINSGGRTNYADSVKGRFTISRDNAMNTVFLNMNSMKPEDTAVYYCAATGRYFDPYYRYDYWGQGTQVTVSS”, the “polyreactivity (PSR sort gate)” value is reported as “low polyreactivity”. In the case of “QVQLVESGGGLVQSGGSLRLTCAASGIIFPRYAMGWYRQAPGKERELVAAITRRGGRTYYADSVKGRFTISRDNAKNTVYLQMNSLKPEDTAVYYCNADFISTRPPKATDEDYWGQGTQVTVSS”, the “polyreactivity (PSR sort gate)” value is reported as “high polyreactivity”. For “QVQLVESGGGLVQVGCSLRLSCAASGFTFYNNVMGWYRQAPGKERELVAAITSTGSTSYADSVKGRFTISRDNAKNTVYLQMNSLKPEDTAVVYCARAYYYLLGGHYRHKYYWGQGTQVTVSS”, the “polyreactivity (PSR sort gate)” value was “high polyreactivity”. In the case of “QVQLVESGGGLVQVGGSLRLICAASGGIFSGNAMGWYRQAPGKERELVAGITNGGRTTYADSVKGRFTISRDNAKNTVYLQMNSLKPEDTAVYYCAAGKIGRRGHQNRLDLDYWGQGTQVTVSS”, the “polyreactivity (PSR sort gate)” value is reported as “low polyreactivity”. For “QVQLVESGGGLVQVGGSLRLSCAASGGIFCGNSMGWYRQAPGKERDLVAAISWDASTYYEDTVKGRFTISRDNAMNTVYLQMNSLKPEDTAVYYCNADIPYYFVYDAYDYWGQGTQVNVSS”, the “polyreactivity (PSR sort gate)” value was “low polyreactivity”. In the case of “QVQLVESGGGLVRAGGSLRLSCAASGFVYYVMGWYRQAPGKERELVAAISKGGGRTYYADSVKGRFTISRDNAKNTVYLQMNSLKPEDTAVYYCAAAFWRITRYGMDYWGQGTQVTVSS”, the “polyreactivity (PSR sort gate)” value is reported as “high polyreactivity”. With “QVQLVESGGGSVQAGGRLRLRCAASGLIFYYYAMGWYRQAPGKERELVADIDRGGDTYYADSVKGRFTISRDNAKNNVYLQMNSLKPEDTEVYYCAAVDSYGYVPVFGYWGQGTQVTVSS” the “polyreactivity (PSR sort gate)” value was “low polyreactivity”. With “QVQLVESGGGSVQAGGSLRLSCAASGFTFRYYAMGWYRQAPGKERELVAGISSRGGSTYYADSVKGRFTISRDNAKNTVYLQMNSLKPEDTAVYYCATERFLLGLGYDYWGQGTQVTVSS” the “polyreactivity (PSR sort gate)” value was “high polyreactivity”. In the case of “QVQLVESGGGSVQAGGSLRLSCAASGFTFRYYAMGWYRQAPGKERELVARISYSGTSTYYADSVKGRFTISRDNAKNTVYLQMNSLKPEDTAVYYCAKLHRTYRQYIYDYWGQGTQVTVSS”, the “polyreactivity (PSR sort gate)” value is reported as “high polyreactivity”. For “QVQLVESGGGSVQAGGSLRLSCAASGRTFVFNAMGWYRQAPGKESELVAGISGSGGSTYYAESVKGRFTISRDNAKNNVYLQMNSLKPEDTAVYYCANTFPRKELDQESVSGLGYWGQGTQVTVSS”, the “polyreactivity (PSR sort gate)” value was “low polyreactivity”. In the case of “QVQLVESGGGSVQAGGSLRLSCAASGRTFYGYAMGWYRQAPGKERELGASISRDGSTNYADSVKGRFTISRDNAKNTVYLQMTSLKPEDTAVYYCAADIWYYRYPIYYYSYDYWGQGTQVNVSS”, the “polyreactivity (PSR sort gate)” value is reported as “low polyreactivity”. With “QVQLVESGGGSVQAGGSLRLSCAASGSIFAQYTMGWYRQAPGKERELVAVISINGVSTYYADSVKGRFTISRDNAKNTVYLQMNSLKPEDTAVYYCNAGISPYEALGYWGQGTQVTVSS” the “polyreactivity (PSR sort gate)” value was “low polyreactivity”. In the case of “QVQLVESGGGSVQAGGSLRLSCAASGSTFRYYAMGWYRQAPGKERELVARITSRAGRTYYADSVKGRFTISRDNAKNTVYLQMNSLKPEDTAVYYCNTRDFSGYVHALSLYDYWGQGTQVTVSS”, the “polyreactivity (PSR sort gate)” value is reported as “high polyreactivity”. For “QVQLVESGGGSVQAGGSLRLSCSASGIIFWYYTMGRNRQAPGKERELVAAISCSSGITYYADSVKGRFTISRDNSKNTVYLQMNSLKPEDTAVYYCAARKFFWRSNYDYWGQGTQVTVSS”, the “polyreactivity (PSR sort gate)” value was “low polyreactivity”. In the case of “QVQLVESGGGVVHAGGSLRLSCAASGRIFRKYAMGWYRQAPGKESEFVAAITWSGGSTYYADSVKGRFTISRDNAKNTVYLQMNSLKPEDTAVYYCNAENGYSWDVFSDYWGQGTQVTVSS”, the “polyreactivity (PSR sort gate)” value is reported as “low polyreactivity”.
